Measurements as given in the Immune Epitope Database (IEDB).

Key:
HLA-A*02:01 [1] = test: IEDB peptide-MHC binding, cellular MHC/competitive/fluorescence; ≥ and ≤ were set here for values at or beyond the usual limits of such assays
HLA-A*02:03 = test: as above
HLA-A*68:02 [2] = test: as above
HLA-A*02:06 [3] = test: IEDB peptide-MHC binding, purified MHC/competitive/radioactivity; ≥ and ≤ were set here for values at or beyond the usual limits of such assays
HLA-A*02:02 = test: as above
HLA-A*68:02 [4] = test: as above
HLA-A*02:01 [5] = test: as above
HLA-A*02:06 [6] = test: IEDB peptide-MHC binding, cellular MHC/competitive/fluorescence; ≥ and ≤ were set here for values at or beyond the usual limits of such assays
[7] = source organism: Vaccinia virus WR
[8] = source organism: Mammarenavirus whitewaterense
[9] = source organism: Mammarenavirus machupoense
[10] = source organism: Influenza A virus

Row | Sequence | IC50 (HLA-A*02:03; [7]) [nM] | IC50 (HLA-A*02:06 [3]; [7]) [nM] | IC50 (HLA-A*02:02; [7]) [nM] | IC50 (HLA-A*68:02 [4]; [7]) [nM] | IC50 (HLA-A*02:01 [5]; [7]) [nM] | also measured
1 | IISTDQDTM | 33200 | 2360 | 4300 | – | – | IC50 (HLA-A*02:01 [1]; [7]): 5870 nM; IC50 (HLA-A*68:02 [2]; [7]): 6690 nM
2 | YAVLSEYETM | 9630 | 1210 | 157 | 4160 | – | IC50 (HLA-A*02:01 [1]; [7]): 5510 nM
3 | VQTLISLNSM | 5820 | 853 | 1560 | – | 259 | IC50 (HLA-A*68:02 [2]; [7]): 50900 nM
4 | CTNDIYCDEI | 5720 | 4760 | 2460 | 192 | – | IC50 (HLA-A*02:01 [1]; [7]): 9060 nM
5 | KIDKLTFQI | 10600 | 42 | 141 | – | 134 | IC50 (HLA-A*68:02 [2]; [7]): 36900 nM
6 | ITDDSDDYEL | 11900 | 49 | 687 | – | 1730 | IC50 (HLA-A*68:02 [2]; [7]): 11900 nM
7 | GLLQFIVFL | – | – | – | – | – | IC50 (HLA-A*02:03; [8]): 7720 nM; IC50 (HLA-A*68:02 [2]; [8]): 12000 nM; IC50 (HLA-A*02:01 [5]; [8]): 0.0075 nM; IC50 (HLA-A*02:06 [3]; [8]): 12 nM; IC50 (HLA-A*02:02; [8]): 0.6 nM
8 | LNIALVAVSL | – | – | – | – | – | IC50 (HLA-A*02:03; [9]): 12500 nM; IC50 (HLA-A*02:06 [6]; [9]): 13200 nM; IC50 (HLA-A*02:01 [5]; [9]): 1250 nM; IC50 (HLA-A*68:02 [4]; [9]): 520 nM; IC50 (HLA-A*02:02; [9]): 180 nM
9 | TTTFITVLT | 8590 | 1090 | 2460 | 33 | 2320 | –
10 | CAAMDDFQL | – | – | – | – | – | IC50 (HLA-A*02:01 [1]; [10]): 10900 nM; IC50 (HLA-A*02:03; [10]): 22800 nM; IC50 (HLA-A*68:02 [2]; [10]): 5070 nM; IC50 (HLA-A*02:06 [3]; [10]): 2100 nM; IC50 (HLA-A*02:02; [10]): 1010 nM
11 | YVVIVENDNV | 11000 | 60 | 2340 | 99 | 547 | –
12 | DISSFYWSL | 6870 | 3970 | 391 | 28 | – | IC50 (HLA-A*02:01 [1]; [7]): 8510 nM
13 | TVGMLIYSM | 6090 | – | 490 | 1790 | 809 | IC50 (HLA-A*02:06 [6]; [7]): 9180 nM
14 | NIEIMDKEQL | 15500 | – | 3470 | 1380 | 4660 | IC50 (HLA-A*02:06 [6]; [7]): 5650 nM
15 | MLIIFWFSL | – | – | – | – | – | IC50 (HLA-A*02:03; source organism: SARS-CoV1): 13000 nM; IC50 (HLA-A*68:02 [2]; source organism: SARS-CoV1): 6910 nM; IC50 (HLA-A*02:01 [5]; source organism: SARS-CoV1): 1160 nM; IC50 (HLA-A*02:06 [3]; source organism: SARS-CoV1): 490 nM; IC50 (HLA-A*02:02; source organism: SARS-CoV1): 132 nM
16 | IVSRSSRGV | 13200 | 476 | 264 | 1020 | 1980 | –
17 | RAGYSIVEL | 5390 | – | 4940 | 1210 | 5000 | IC50 (HLA-A*02:06 [6]; [7]): 5070 nM
